From publication PMC5995851, “Conformational rearrangements of the C1 ring in KaiC measure the timing of assembly with KaiB” (Scientific Reports, 2018) come the findings set out here.

In assay [1] the target is T1, KaiC^S157W-D/T (S157W/S431D, pS/T mimic) (Synechococcus elongatus, UniProt Q79PF4 1-519, S157W | S431D).
T1 construct: Circadian clock protein KaiC, Synechococcus elongatus, with C1 and C2 domains; Trp probe S157W and phospho-mimicking S431D
T1 sequence: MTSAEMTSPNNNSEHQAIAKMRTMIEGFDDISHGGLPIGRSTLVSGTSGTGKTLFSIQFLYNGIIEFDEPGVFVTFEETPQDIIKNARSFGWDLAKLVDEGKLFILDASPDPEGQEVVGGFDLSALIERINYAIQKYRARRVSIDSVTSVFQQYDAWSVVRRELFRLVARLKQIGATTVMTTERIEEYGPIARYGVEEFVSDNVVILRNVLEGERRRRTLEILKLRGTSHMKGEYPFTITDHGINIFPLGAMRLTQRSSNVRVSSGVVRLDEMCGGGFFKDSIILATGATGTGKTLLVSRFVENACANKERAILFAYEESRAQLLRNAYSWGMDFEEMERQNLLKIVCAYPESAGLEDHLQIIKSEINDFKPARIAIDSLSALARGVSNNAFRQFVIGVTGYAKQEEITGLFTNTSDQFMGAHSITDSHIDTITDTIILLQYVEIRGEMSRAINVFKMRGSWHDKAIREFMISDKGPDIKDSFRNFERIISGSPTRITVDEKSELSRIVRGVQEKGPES
As to the kind of experiment: tryptophan (W157) fluorescence quenching; KaiC^S157W phospho-mimicking mutants with or without an equimolar concentration of KaiB (monomer basis), spectra after 24 h incubation at 30 °C; 50 mM Tris, 150 mM NaCl, 5 mM MgCl2, 0.5 mM EDTA, 1 mM ATP, pH 8.0; excitation 295 nm. To be noted: both partners purified.

Assay [2] has as its target T2, KaiC^S157W-D/E (S157W/S431D/T432E, pS/pT mimic) (Synechococcus elongatus, UniProt Q79PF4 1-519, S157W | S431D | T432E).
T2 construct: Circadian clock protein KaiC, Synechococcus elongatus, with C1 and C2 domains; Trp probe S157W and phospho-mimicking S431D/T432E
T2 sequence: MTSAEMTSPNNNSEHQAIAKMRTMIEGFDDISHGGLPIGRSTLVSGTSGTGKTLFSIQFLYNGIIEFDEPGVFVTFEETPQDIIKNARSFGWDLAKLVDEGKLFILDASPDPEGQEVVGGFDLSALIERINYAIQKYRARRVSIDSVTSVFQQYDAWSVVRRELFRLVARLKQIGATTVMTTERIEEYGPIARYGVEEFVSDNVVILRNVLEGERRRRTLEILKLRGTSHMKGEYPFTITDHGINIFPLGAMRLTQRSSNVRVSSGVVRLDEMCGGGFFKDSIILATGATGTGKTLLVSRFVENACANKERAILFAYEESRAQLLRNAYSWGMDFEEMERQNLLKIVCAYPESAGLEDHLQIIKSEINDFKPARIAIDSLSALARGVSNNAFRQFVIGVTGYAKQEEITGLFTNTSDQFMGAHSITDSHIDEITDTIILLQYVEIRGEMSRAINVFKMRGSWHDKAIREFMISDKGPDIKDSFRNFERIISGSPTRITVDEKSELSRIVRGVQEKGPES
In words: other fluorescence titration; time-resolved W157 fluorescence at 30 °C after addition of KaiB to KaiC pre-incubated at 30 °C for at least 2 h; KaiC^S157W-D/E fixed at 3.5 µM, KaiB equimolar or 0.9-10.5 µM; 1 mM ATP buffer, pH 8.0. The conditions noted are these: both partners purified.

B1: KaiB (wild type) (natural protein, Synechococcus elongatus, UniProt Q79PF5 1-102, looked up)
chain: MSPRKTYILKLYVAGNTPNSVRALKTLKNILEVEFQGVYALKVIDVLKNPQLAEEDKILATPTLAKVLPLPVRRIIGDLSDREKVLIGLDLLYGELQDSDDF
notes: Circadian clock protein KaiB, Synechococcus elongatus, wild type
Take B1: in assay [1], the binding result is recorded as “binds”. The “t1/2 of the FIapp decrease after addition of equimolar KaiB” value in assay [2] stood at 2.4 h.
